B1: FORN-pJB42: forskolin responsive enhancer element in combination with pJB42 minimal promoter, SEQ ID NO: 211 (nucleic acid)
DNA: AATAAAATATCTTTATTTTCATTACATCTGTGTGTTGGTTTTTTGTGTGCCATTGACGTCACGATTTGACGTCAACCATTGACGTCACGATTTGACGTCAACCATTGACGTCACGATTTGACGTCACGATTTGACGTCAACCATTGACTCACGATTTGACTCAACCATTGACTCACGATTTGACTCAACCATTGACTCACGATTTGACTCACGATTCTGACAAATTCAGTATAAAAGCTTGGGGCTGGGGCCGAGCACTGGGGACTTTGAGGGTGGCCAGGCCAGCGTAGGAGGCCAGCGTAGGATCCTGCTGGGAGCGGGGAACTGAGGGAAGCGACGCCGAGAAAGCAGGCGTACCACGGAGGGAGAGAAAAGCTCCGGAAGCCCAGCAGCGGCCACC
B2: RTV-015: synthetic hypoxia-inducible promoter, five HRE1 and synthetic minimal promoter MP1, SEQ ID NO: 1 (nucleic acid)
DNA: ACGTGCGATGATGCGTAGCTAGTAGTGATGATGCGTAGCTAGTAGTACGTGCGATGATGCGTAGCTAGTAGTGATGATGCGTAGCTAGTAGTACGTGCGATGATGCGTAGCTAGTAGTGATGATGCGTAGCTAGTAGTACGTGCGATGATGCGTAGCTAGTAGTGATGATGCGTAGCTAGTAGTACGTGCTTGGTACCATCCGGGCCGGCCGCTTAAGCGACGCCTATAAAAAATAGGTTGCATGCTAGGCCTAGCGCTGCCAGTCCATCTTCGCTAGCCTGTGCTGCGTCAGTCCAGCGCTGCGCTGCGTAACGGCCGCC

Tests used:
[1] = system: Pro10 cells; assay: Activation of FORN-pJB42 driving Rep78 by adenovirus helper functions; format: cell-based, human; conditions: with and without adenovirus helper functions, forskolin or DMSO
Protocol: The ability for the aforementioned helper functions to induce the activity of the best performing promoter FORN-pJB42 was next assessed. Transfections were carried out as previously described. Conditions were as follows: FORN-pJB42 controlling expression of Rep78 was transfected with and without the adenovirus helper functions. In addition, the transfected cells were also treated with forskolin at […] or vehicle DMSO control. Analysis of activity was as described in the previous section. […] However, it should be noted that full activity is not obtained until both the adenovirus helper functions and 10 μM forskolin were present.

[2] = system: Pro10 cells; assay: Rep78 expression (western blot) from new forskolin promoter designs in Pro10 cells; format: cell-based, human; conditions: Pro10, 10 uM forskolin or DMSO, 24 hrs
Protocol: Each of the promoters were tested for their ability to induce expression of the Rep78 protein. To eliminate the expression of Rep52 the ATG start codon in Rep52 was mutated to an AGG. All constructs were synthesized by Genewiz, see sequence files for full plasmid.
Pro10 cells were cultured and transfected using lipofectamine 2000 as previously described herein above. 24 hrs after transfection 10 uM forskolin was added to the cells. Control wells were given DMSO as forskolin was dissolved in this carrier. After another 24 hrs the cells were then lysed and lysates were analyzed for Rep78 expression via western blot (previously described). The best performing promoters were the TATA-m6a, YB and pJB42 (FIG. 29). […] The rest of the promoters have some level of background which indicates leaky expression.

[3] = system: CHO-GS cells; assay: Luciferase expression in transiently transfected CHO-GS suspension cells, normoxia vs 24 hrs hypoxia; format: cell-based, Chinese hamster; conditions: CHO_GS suspension cell line
Protocol: 40 ml of cells were grown in a 250 ml vented Erlenmeyer flask (Sigma-Aldrich CLS431144) at 37° C., 20% O2, 8% CO2 with agitation at 100 rpm. Cells were seeded as at 300,000 cells/ml.
(§1) One day before transfection, the cells were counted using a haemocytometer and split to 500,000 cells/ml.
(§2) On the day of transfection, the cells are seeded to 1,000,000 cells/ml in 500 μl of appropriate medium (Thermofisher, CD-CHO 10743029) in a 24 well plate. 0.625 μg of DNA per well was then added to 10 μl of OptiMem medium (Thermofisher; 11058021) and incubated for 5 minutes at room temperature.
Concurrently, 0.625 μl of Freestyle Max reagent (Thermofisher, 16447100) was made up to 10 μl by addition of OptiMem and incubated for 5 minutes at room temperature. After this incubation, both mixes were added to the same tube and incubated at room temperature for 25-30 minutes. The DNA/Max reagent mix (20 μl/well) was then added directly to the cells and the cells incubated at 37° C., 8% CO2 with agitation at 100 rpm. […]
After transfection the cells were incubated for 24 hrs in normoxic conditions (20% oxygen). Induction of the promoters was assessed by using luciferase activity after 24 hrs in normoxia or hypoxia (5% oxygen, 10% carbon dioxide and 85% nitrogen). […] Luciferase activity was measured as described above.

[4] = system: HEK293-F cells; assay: Luciferase expression from hypoxia-inducible promoters in transiently transfected HEK293-F cells under hypoxia; format: cell-based, human; conditions: hypoxia 5% oxygen, 3, 5 and 24 hrs
Protocol: 40 ml of cells were grown in a 250 ml vented Erlenmeyer flask (Sigma-Aldrich CLS431144) at 37° C., 20% O2, 8% CO2 with agitation at 100 rpm. Cells were seeded as described in the manufacturer's instructions (300,000 cells/ml). HEK293-F were obtained from Thermofisher, R79007.
as §1
as §2, with “(Freestyle 293 expression medium, 12338002)” for “(Thermofisher, CD-CHO 10743029)”, “temperature. […]” for “temperature.”
After transfection the cells were incubated for 24 hrs in normoxia conditions (20% oxygen) before being switched to a gas mix of 5% oxygen, 10% carbon dioxide and 85% nitrogen (hypoxia). […] Induction of the promoters was assessed by using luciferase activity after 3, 5 and 24 hrs in hypoxia.
(§3) Luciferase activity was measured using LARII (Dual Luciferase Reporter 1000 assay system, Promega, E1980).
Media was removed from the cells at the respective time point (0, 3, 5, 24 hrs after induction). […] 10 μl of supernatant was pipetted into white 96-well plate and luminescence measured by addition of 50 μl of LARII substrate. […]

[5] = system: HEK293-T cells; assay: Luciferase expression in transiently transfected HEK293-T cells, normoxia vs 24 hrs hypoxia; format: cell-based, human
Protocol: HEK293-T are seeded at a density of 20%. Once they reached a confluence between 60 and 80%, the media is changed with DMEM (#21885-025—Thermo Scientific) supplemented with 10% FBS (Gibco, 26140). After 3 hours, the cells were transfected by a transfection mix. The transfection mix is prepared by adding DNA (2 μg per 6 well plate) and PEI 25 kDA (#23966-1-Polyscience) in a ratio of 1:3 in sterile DPBS (#14190169—ThermoFisher Scientific). After mixing, the transfection mix is incubated at room temperature for 30 minutes and then added directly to the cells. After 16 to 18 h post transfection, the media is changed to DMEM+2% FBS. […]
After transfection the cells were incubated for 24 hrs in normoxic conditions (20% oxygen). Induction of the promoters was assessed by using luciferase activity after 24 hrs in normoxia or hypoxia (5% oxygen, 10% carbon dioxide and 85% nitrogen). […]
as §3
Media was removed from the cells at the respective time point (0, 3, 5, 24 hrs after induction). […] 10 μl of supernatant was pipetted into white 96-well plate and luminescence measured by addition of 50 μl of LARII substrate.
β-galactosidase activity was measured as per manufacturer's instructions (Mammalian βGalactosidase Assay Kit, 75707/75710, Thermo Scientific) using 25 μl of lysate. […]

Row | Molecule | activation of the promoter driving Rep78 [1] | Rep78 expression (western blot) [2] | luciferase expression in normoxia and after 24 hours in hypoxia [3] | promoter activity (luciferase) relative to the other promoters [4] | luciferase expression in normoxia and after 24 hours in hypoxia [5]
1 | B1 | activated by the presence of the helper functions, even in the absence of forskolin | no Rep78 expression in the absence of forskolin but strong expression on the presence | – | – | –
2 | B2 | – | – | almost no luciferase activity in normoxia but is induced after 24 hours in hypoxia | weakest | almost no luciferase activity in normoxia but is induced after 24 hours in hypoxia

— patent publication US20230407326A1, “INDUCIBLE PROMOTER FOR VIRAL VECTOR PRODUCTION” (ASKLEPIOS BIOPHARMACEUTICAL, INC., priority 2020, published 2023)
